Measurements taken from doi:10.1101/2022.04.02.486822v1.
Changes are numbered by the printed parent chain. Names and notes keep the numbering of the source.

B1: EcGhrA (Escherichia coli K-12; W45F) (protein)
chain: MDIIFYHPTFDTQWWIEALRKAIPQARVRAWKSGDNDSADYALVFHPPVEMLAGRDLKAVFALGAGVDSILSKLQAHPEMLNPSVPLFRLEDTGMGEQMQEYAVSQVLHWFRRFDDYRIQQNSSHWQPLPEYHREDFTIGILGAGVLGSKVAQSLQTWRFPLRCWSRTRKSWPGVQSFAGREELSAFLSQCRVLINLLPNTPETVGIINQQLLEKLPDGAYLLNLARGVHVVEDDLLAALDSGKVKGAMLDVFNREPLPPESPLWQHPRVTITPHVAAITRPAEAVEYISRTIAQLEKGERVCGQVDRARGY
B2: EcGhrA (Escherichia coli K-12) (protein)
chain: B1 chain with F45W

Legend:
Experiment in all cases: purified protein
Settings in all cases: 200 µM NADPH, 50 mM HEPES, pH 7.5, 22 °C
purified protein [1] = substrate: O=CC(=O)O; type: biochemical, Escherichia coli
purified protein [2] = substrate: N=C(N)NCCCC(=O)C(=O)O
purified protein [3] = substrate: O=C(O)CCC(=O)C(=O)O
purified protein [4] = substrate: O=C(O)CC(=O)C(=O)O
purified protein [5] = substrate: O=CC(=O)O

Protein	Km (purified protein [1])	kcat (purified protein [1])	Km (purified protein [2])	kcat (purified protein [2])	Km (purified protein [3])	kcat (purified protein [3])	Km (purified protein [4])	kcat (purified protein [4])	Km (purified protein [5])	kcat (purified protein [5])
B1	10.8 ± 6.1 mM	120.0 ± 63.0 s⁻¹	43.2 ± 8.4 mM	4.0 ± 0.7 s⁻¹	11.5 ± 0.8 mM	0.26 ± 0.01 s⁻¹	6.3 ± 0.2 mM	1.8 ± 0.04 s⁻¹		
B2			8.8 ± 0.8 mM	6.6 ± 0.4 s⁻¹	4.0 ± 0.4 mM	0.30 ± 0.02 s⁻¹	1.3 ± 0.2 mM	1.9 ± 0.1 s⁻¹	2.2 ± 1.7 mM	40.0 ± 23.0 s⁻¹
